Measured values as given in US11466080B2, “Methods of treating cancer using anti-LRP1 polyclonal antibodies” (Children's Medical Center Corporation, priority 2017, dated 2022).
Where two headings read alike, the source gives them in different places.

Tests used:
prosaposin (PSAP) = target: T1, prosaposin (PSAP) (Homo sapiens, UniProt P07602); experiment: Co-immunoprecipitation of LRP1 peptides with PSAP; assay type: binding
T1 sequence (P07602 60-524): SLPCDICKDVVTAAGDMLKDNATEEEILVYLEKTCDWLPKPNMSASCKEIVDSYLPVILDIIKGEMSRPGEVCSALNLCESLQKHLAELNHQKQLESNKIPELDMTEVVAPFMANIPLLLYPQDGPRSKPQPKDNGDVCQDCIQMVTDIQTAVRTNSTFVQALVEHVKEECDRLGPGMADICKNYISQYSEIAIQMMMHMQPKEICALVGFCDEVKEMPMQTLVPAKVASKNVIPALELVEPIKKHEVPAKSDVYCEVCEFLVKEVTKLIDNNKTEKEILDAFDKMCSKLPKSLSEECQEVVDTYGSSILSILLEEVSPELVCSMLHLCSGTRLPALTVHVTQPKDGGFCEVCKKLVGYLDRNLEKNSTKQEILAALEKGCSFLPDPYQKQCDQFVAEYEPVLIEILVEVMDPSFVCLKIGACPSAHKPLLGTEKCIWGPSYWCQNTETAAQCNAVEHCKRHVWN
Experimental: (§1) FIGS. 16A-16B. Co-immunoprecipitation of LRP1 peptides with PSAP (FIG. 16A) or PRSS2 (FIG. 16B).
(§2) To map the binding sites on LRP1 that binds to prosaposin (PSAP) and/or PRSS2, peptides derived from binding domain I of LRP1 (SEQ ID NOs: 3 and 7-18) were tested for their ability to co-immunoprecipitate with PSAP or PRSS2.

PRSS2 = PRSS2 (Homo sapiens, UniProt P07478); experiment: Co-immunoprecipitation of LRP1 peptides with PRSS2; assay type: binding
Experimental: as §1, §2

Tsp-1 [1] = experiment: Western blot of Tsp-1 in prostate fibroblasts treated with PC3-conditioned media; assay type: cell-based
Text: (§3) FIGS. 6A-6B. Western blot analysis of: (FIG. 6A) Tsp-1 and β-actin expression in prostate fibroblasts that were untreated (−) or treated with conditioned media from PC3 cells alone or in combination with RAP, and (FIG. 6B) Tsp-1, p53 and β-actin expression in prostate fibroblasts that were untreated (−) or treated with conditioned media from PC3 cells alone or in combination with the PKC inhibitor Gδ 6983 (PKCi).
(§4) Thus, in order to determine how prosaposin was able to stimulate the expression of Tsp-1 and p53 in tumor-associated fibroblasts, prostate fibroblasts were treated with PC3-conditioned media in the presence and absence of Receptor Associate Protein (RAP), a competitive inhibitor or LRP1 binding. […] To determine whether prosaposin-mediated stimulation of Tsp-1 utilized this pathway, fibroblasts were treated with CM from PC3 cells in the presence and absence of the PKC inhibitor Gö 6983. […] Thus, it is believed that Prosaposin functions via binding to LRP1.

p53 = experiment: Western blot of p53 in prostate fibroblasts treated with PC3-conditioned media; assay type: cell-based
Text: as §3, §4

Tsp-1 [2] = experiment: Western blot of Tsp-1 in lung fibroblasts treated with psap peptide; assay type: cell-based; settings: peptide with 25 or 50 μg rhRAP or with Y27632
Experimental: FIGS. 8A-8B. Western blot analysis of Tsp-1 and β-actin expression in lung fibroblasts, which were (FIG. 8A) untreated (−) or treated with psap peptide alone or in combination with 25 or 50 μg of rhRAP, and (FIG. 8B) untreated (−) or treated with psap peptide alone or with Y27632.
In order to delineate the pathway leading from LRP1 to Tsp-1 stimulation by prosaposin, two pathways that have been reported to be stimulated by LRP1 under different conditions were chosen to be examined: Rho and Rac.

Tsp-1 [3] = experiment: Western blot of Tsp-1 in lung fibroblasts treated with LN4 conditioned media; assay type: cell-based; settings: WI38 cells, LN4 CM with Rac1 inhibitor
Text: FIG. 11. Western blot analysis of Tsp-1 and β-actin expression in lung fibroblasts that were untreated (−) or treated with LN4 CM alone or in combination with STI.
FIG. 12. Western blot analysis of Tsp-1 and β-actin expression in lung fibroblasts that is were untreated (−) or treated with LN4 CM alone or in combination with Rac1 inhibitor.
Attention was then turned to the mechanism by which PC3M-LN4 cells repress Tsp-1 in the tumor microenvironment. In doing so, LN4 conditioned media (CM) was fractionated over a Cu^2+/heparin sepharose column with increasing concentrations of NaCl. The eluted fractions were used to treat lung fibroblasts and Tsp-1 induction was analyzed by western blot. […] By analyzing the protein content of the eluted fractions by tandem liquid chromatography/mass spectrometry (LC/MS), a protein was identified that was present in the active fractions of LN4 CM, but not present in the adjacent fractions or the fractions eluted with the same NaCl concentrations from PC3 CM. The identified protein was the serine protease PRSS2. […] Finally, the signaling pathway emanating from LRP1 that was mediating the PRSS2-induced repression of Tsp-1 was sought to be delineated. […]

PRSS2, sequence (P07478 16-247 limits assumed): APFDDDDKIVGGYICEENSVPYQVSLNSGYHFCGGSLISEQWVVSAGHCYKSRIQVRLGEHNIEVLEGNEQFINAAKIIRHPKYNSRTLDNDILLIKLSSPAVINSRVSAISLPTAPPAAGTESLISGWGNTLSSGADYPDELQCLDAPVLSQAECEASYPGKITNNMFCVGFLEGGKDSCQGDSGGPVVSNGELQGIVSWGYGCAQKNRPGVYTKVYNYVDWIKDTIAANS

Molecule: Peptide 12: amino acids 140-164 of LRP1, SEQ ID NO: 18, YGTCSQLCTNTDGSFICGCVEGYLL
- binding to PSAP (co-immunoprecipitation) (prosaposin (PSAP); listed as peptide 12): bind to both PRSS2 and PSAP
- binding to PRSS2 (co-immunoprecipitation) (PRSS2): Peptide 12 (amino acids 140-164 of LRP1, binds to
- binding to PRSS2 (co-immunoprecipitation) (PRSS2; listed as peptide 12): bind to both PRSS2 and PSAP

Molecule: COc1ccc2c(c1)c(C1=C(c3c[nH]c4ccccc34)C(=O)NC1=O)cn2CCCN(C)C [Gö 6983, reference compound]
- stimulation of Tsp-1 by PC3-conditioned media in the presence of the substance (Tsp-1 [1]): abolished the stimulation of Tsp-1 and p53
- stimulation of p53 by PC3-conditioned media in the presence of the substance (p53): abolished the stimulation of Tsp-1 and p53

Molecule: Peptide 13: amino acids 151-172 of LRP1, SEQ ID NO: 3, FICGCVEGYLLQPDNRSCKAKN
- binding to PSAP (co-immunoprecipitation) (prosaposin (PSAP); listed as peptide 13): bind to both PRSS2 and PSAP
- binding to PRSS2 (co-immunoprecipitation) (PRSS2; listed as peptide 13): bind to both PRSS2 and PSAP

Molecule: C[C@@H](N)[C@H]1CC[C@H](C(=O)Nc2ccncc2)CC1 [Peptide Y27632, Y27632, reference compound]
- effect of co-treatment on stimulation of Tsp-1 by the peptide (Tsp-1 [2]): completely abrogated

Molecule: CCN(CC)CCCC(C)Nc1nc(C)cc(Nc2ccc3nc(C)cc(N)c3c2)n1 (racemic) [Rac1 inhibitor]
- Tsp-1 levels under LN4 CM in presence of the substance (Tsp-1 [3]): restored to basal levels

B1: RAP: Receptor Associate Protein (RAP), a competitive inhibitor or LRP1 binding (protein, UniProt P30533 35-357, looked up)
Alpha-2-macroglobulin …: YSREKNQPKPSPKRESGEEFRMEKLNQLWEKAQRLHLPPVRLAELHADLKIQERDELAWKKLKLDGLDEDGEKEARLIRNLNVILAKYGLDGKKDARQVTSNSLSGTQEDGLDDPRLEKLWHKAKTSGKFSGEELDKLWREFLHHKEKVHEYNVLLETLSRTEEIHENVISPSDLSDIKGSVLHSRHTELKEKLRSINQGLDRLRRVSHQGYSTEAEFEEPRVIDLWDLAQSANLTDKELEAFREELKHFEAKIEKHNHYQKQLEIAHEKLRHAESVGDGERVSRSREKHALLEGRTKELGYTVKKHLQDLSGRISRARHNEL
- stimulation of Tsp-1 by PC3-conditioned media in the presence of the substance (Tsp-1 [1]): no longer stimulated Tsp-1
- effect of co-treatment on stimulation of Tsp-1 by the peptide (Tsp-1 [2]): blocked the stimulation of Tsp-1 in a dose-dependent fashion
